Experimental data published in patent publication US20160046944, “APTAMER TO IL-17 AND USE THEREOF” (THE UNIVERSITY OF TOKYO, published 2016).
Changes are numbered by the printed parent chain.

T1: IL-17 (Homo sapiens, UniProt Q16552 Q16552:24-155)
T1 sequence: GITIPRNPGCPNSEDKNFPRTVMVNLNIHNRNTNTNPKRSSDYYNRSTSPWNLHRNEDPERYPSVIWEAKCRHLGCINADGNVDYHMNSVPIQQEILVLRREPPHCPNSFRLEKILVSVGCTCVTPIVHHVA

T2: IL-17 (IL-17A) (Homo sapiens, UniProt Q16552 Q16552:24-155)
T2 sequence: T1 sequence

B1: aptamer No. 79 (ssRNA)
RNA: GGGUAGCCGGAGGAGUCAGUAAUCGGUACCC
modifications: 2'-OMe (M), 2'-F (F) as marked [2'-OMe: 1-5,7,8,10,13,14,21-31; 2'-F: 11,16,17,18,20]
B2: aptamer No. 89 (mixed)
mixed: B1 RNA with U16T, U20T
modifications: 2'-OMe (M), 2'-F (F), PS (S) as marked; uppercase DNA [2'-OMe: 1-5,7,8,10,11,13,14,17,22-31; 2'-F: 18; PS: 6,15,19; DNA: 9,16,20]
B3: aptamer No. 76 (mixed)
RNA: B1 RNA
modifications: 2'-OMe (M), 2'-F (F) as marked; uppercase DNA [2'-OMe: 1-5,7,8,10,13,14,21-26,29-31; 2'-F: 11,16,17,18,20,27]
B4: aptamer No. 91 (mixed)
mixed: B1 RNA with U16T, U20T
modifications: 2'-OMe (M), 2'-F (F), PS (S) as marked; uppercase DNA [2'-OMe: 1-5,7,8,10,11,13,14,17,23-31; 2'-F: 18; PS: 6,15,19; DNA: 9,16,20]
B5: aptamer No. 92 (mixed)
RNA: B1 RNA
modifications: 2'-OMe (M), 2'-F (F), PS (S) as marked; uppercase DNA [2'-OMe: 1-5,7,8,10,11,13,14,22-26,28-31; 2'-F: 16-18,20,27; PS: 6,15,19; DNA: 9]
B6: aptamer No. 85 (mixed)
RNA: B1 RNA
modifications: 2'-OMe (M), 2'-F (F), PS (S) as marked; uppercase DNA [2'-OMe: 1-5,7,8,10,11,13,14,21-26,28-31; 2'-F: 16,17,18,20,27; PS: 6,15,19; DNA: 9]
B7: aptamer No. 83 (mixed)
RNA: B1 RNA
modifications: 2'-OMe (M), 2'-F (F), PS (S) as marked; uppercase DNA [2'-OMe: 1-5,7,8,10,11,13,14,17,21-26,28-31; 2'-F: 16,18,20,27; PS: 6,15,19; DNA: 9]
B8: aptamer No. 69 (mixed)
RNA: B1 RNA
modifications: 2'-OMe (M), 2'-F (F), PS (S) as marked; uppercase DNA [2'-OMe: 1-5,7,8,10,13,14,21-26,28-31; 2'-F: 11,16,17,18,20,27; PS: 6]
B9: aptamer No. 93 (mixed)
RNA: B1 RNA
modifications: 2'-OMe (M), 2'-F (F), PS (S) as marked; uppercase DNA [2'-OMe: 1-5,7,8,10,11,13,14,21,23-26,28-31; 2'-F: 16-18,20,27; PS: 6,15,19; DNA: 9]
B10: aptamer No. 84 (mixed)
RNA: B1 RNA
modifications: 2'-OMe (M), 2'-F (F), PS (S) as marked; uppercase DNA [2'-OMe: 1-5,7,8,10,11,13,14,21-31; 2'-F: 16,17,18,20; PS: 6,15,19; DNA: 9]
B11: aptamer No. 62 (mixed)
mixed: B1 RNA with U16T, U20T
modifications: 2'-OMe (M), 2'-F (F), PS (S) as marked; uppercase DNA [2'-OMe: 1,2,3,4,5,7,8,10,13,14,21,22,23,24,25,26,28,29,30,31; 2'-F: 11,17,18,27; PS: 6]
B12: aptamer No. 72 (mixed)
RNA: B1 RNA
modifications: 2'-OMe (M), 2'-F (F), PS (S) as marked; uppercase DNA [2'-OMe: 1-5,7,8,10,13,14,21-31; 2'-F: 11,16,17,18,20; PS: 6]
B13: aptamer No. 53 (mixed)
mixed: B1 RNA with U16T, U20T
modifications: g(M)g(M)g(M)u(M)Ag(S)c(M)c(M)Gg(M)a(F)gg(M)a(M)gTc(F)a(F)g(S)Ta(M)a(M)u(M)c(M)g(M)g(M)u(F)a(M)CCC
B14: aptamer No. 27 (mixed)
mixed: B1 RNA with U16T, U20T, U27T
modifications: 2'-OMe (M), 2'-F (F), PS (S) as marked; uppercase DNA [2'-OMe: 1,2,3,4,7,8,10,13,14,21,23,24,25,26,28,29,30,31; 2'-F: 17; PS: 6]
B15: aptamer No. 49 (mixed)
mixed: B1 RNA with U16T, U20T
modifications: 2'-OMe (M), 2'-F (F) as marked; uppercase DNA; (PI) printed, likely (M) [2'-OMe: 1-4,7,8,10,14,23-26,28; 2'-F: 17,27; 13 printed (PI), likely 2'-OMe]
B16: aptamer No. 37 (mixed)
mixed: B1 RNA with U16T, U20T, U27T
modifications: 2'-OMe (M), 2'-F (F) as marked; uppercase DNA; (NI) printed, likely (M) [2'-OMe: 1,2,3,4,7,10,13,14,23,24,25,26,28,29,30,31; 2'-F: 17; 8 printed (NI), likely 2'-OMe]
B17: aptamer No. 33 (mixed)
mixed: B1 RNA with U16T, U20T, U27T
modifications: 2'-OMe (M), 2'-F (F) as marked; uppercase DNA [2'-OMe: 1,2,3,4,7,8,10,13,14,21,23,24,25,26; 2'-F: 17]
B18: aptamer No. 28 (mixed)
mixed: B1 RNA with U16T, U20T, U27T
modifications: 2'-OMe (M), 2'-F (F) as marked; uppercase DNA [2'-OMe: 1,2,3,4,7,8,10,13,14,23,24,25,26,28,29,30,31; 2'-F: 17]
B19: aptamer No. 31 (mixed)
mixed: B1 RNA with U16T, U20T, U27T
modifications: 2'-OMe (M), 2'-F (F), PS (S) as marked; uppercase DNA [2'-OMe: 1,2,3,4,7,8,10,13,14,23,24,25,26,29,30,31; 2'-F: 17; PS: 6]
B20: aptamer No. 32 (mixed)
mixed: B1 RNA with U16T, U20T, U27T
modifications: 2'-OMe (M), 2'-F (F) as marked; uppercase DNA [2'-OMe: 1,2,3,4,7,8,10,13,14,21,22,23,24,25,26; 2'-F: 17]
B21: aptamer No. 48 (mixed)
mixed: B1 RNA with U16T, U20T
modifications: 2'-OMe (M), 2'-F (F) as marked; uppercase DNA [2'-OMe: 1-4,7,8,10,13,14,23-26,28; 2'-F: 17,27]
B22: aptamer No. 47 (mixed)
mixed: B1 RNA with U16T, U20T
modifications: 2'-OMe (M), 2'-F (F) as marked; uppercase DNA [2'-OMe: 1-4,7,8,10,13,14,23-26,28; 2'-F: 11,17,18,27]
B23: aptamer No. 39 (mixed)
mixed: B1 RNA with U16T, U20T, U27T
modifications: 2'-OMe (M), 2'-F (F) as marked; uppercase DNA [2'-OMe: 1-4,7,8,10,13,14,22-26,28-31; 2'-F: 17]
B24: aptamer No. 29 (mixed)
mixed: B1 RNA with U16T, U20T, U27T
modifications: 2'-OMe (M), 2'-F (F) as marked; uppercase DNA [2'-OMe: 1,2,3,4,7,8,10,13,14,21,22,23,24,25,26,28,29,30,31; 2'-F: 17]

Each binder was assayed against T1, IL-17 (assay: SPR; IL-17 150 nM, aptamer 12.5 or 50 nM). Conditions: chain copies: 2.
Description: Whether the synthesized aptamers inhibit the binding of IL-17 and IL-17 receptor was evaluated by the surface plasmon resonance method.
For the measurement, BIAcore T100 manufactured by GE Healthcare Bio Sciences was used. […] As an analyte, IL-17 (150 nM) and each aptamer (12.5 or 50 nM) shown by Table 3 were mixed, maintained for 15 min and after that the mixture was flown.

Row | Binder | binding signal
1 | B1 | 28.2 % IL-17/IL-17R binding remaining
2 | B2 | 35.1 % IL-17/IL-17R binding remaining
3 | B3 | 24.1 % IL-17/IL-17R binding remaining
4 | B4 | 35.1 % IL-17/IL-17R binding remaining
5 | B5 | 31.6 % IL-17/IL-17R binding remaining
6 | B6 | 27.8 % IL-17/IL-17R binding remaining
7 | B7 | 33.5 % IL-17/IL-17R binding remaining
8 | B8 | 18.4 % IL-17/IL-17R binding remaining
9 | B9 | 30.6 % IL-17/IL-17R binding remaining
10 | B10 | 27.7 % IL-17/IL-17R binding remaining
11 | B11 | 25.9 % IL-17/IL-17R binding remaining
12 | B12 | 26.1 % IL-17/IL-17R binding remaining

What follows are binders tested against T2, IL-17 (IL-17A) (assay: cell_activity; IL-6 release, NIH3T3). Conditions: chain copies: 2.
Description: First, human IL-17 and the aptamer produced in Example 1-2 were pre-incubated at 37° C. for 30 min, and added to NIH3T3 cell (ATCC, CRL1658) together with mouse TNFα (2 ng/mL). Then, after incubation for 24 hr, the culture supernatant was collected, and the production amount of IL-6 was measured by ELISA method described below. The IL-17 inhibitory action of each aptamer was determined from the production amount of IL-6. For comparison with the aptamer of the present invention, a conventionally-known aptamer (aptamer No. 50) against IL-17 was used.
ELISA method for verifying IL-17 inhibitory action of aptamer: A microtiter plate for ELISA was coated with rat anti-mouse IL-6 antibody (BD Biosciences, 2 μg/mL; 100 μL/well) diluted with PBS, and incubated at 4° C. overnight. The next day, the microtiter plate was washed 3 times with PBS/0.05% Tween 20, and applied blocking with PBS/1% BSA (200 μL/well) at room temperature for 2 hr. Then, the plate was washed 3 times with PBS/0.05% Tween 20. Recombinant mouse IL-6 (BD Biosciences; 100 μL/well) serially diluted with PBS/1% BSA/0.05% Tween 20 or culture supernatants (100 μL/well) were added to the plate. After incubation at room temperature for 2 hr, the plate was washed 3 times with PBS/0.05% Tween 20. Then, 100 μL/well of biotin conjugated rat anti-mouse IL-6 antibody (BD Biosciences) was added to the plate at final dilution of 1/500, and the mixture was reacted at room temperature for 1 hr. After washing 3 times with PBS/0.05% Tween 20, 100 μL/well of alkaline phosphatase conjugated streptavidin was added at final dilution of 1/1000. After 30 min at room temperature, the plate was again washed 4 times with PBS/0.05% Tween 20, and a substrate (1-Step PNPP; Thermo Fisher Scientific Inc; 100 μL/well) was added. After 15 min, aqueous sodium hydroxide solution (2N: 50 μL/well) was added to stop the reaction, and the plate was read on a microtiter reader (Bio-Rad) by using a 405 nm filter.

Row | Binder | IC50
13 | B13 | 1.67 nM

Each binder was assayed against T1, IL-17 (assay: SPR; IL-17R-Fc on chip). Conditions: chain copies: 2.
Description: Whether aptamers shown by aptamer Nos. 1-49 inhibit the binding of IL-17 and IL-17 receptor was evaluated by the surface plasmon resonance method.
For the measurement, BIAcore2000 manufactured by BIAcore was used. […] As an analyte, IL-17 (100 or 150 nM) and an aptamer (50 or 100 nM) shown by aptamer No. 1-49 were mixed, maintained for 15 min and after that the mixture was flown.

Row | Binder | binding signal
14 | B14 | 13.3 % IL-17/IL-17R binding remaining
15 | B15 | 19 % IL-17/IL-17R binding remaining
16 | B16 | 15.5 % IL-17/IL-17R binding remaining
17 | B17 | 15.9 % IL-17/IL-17R binding remaining
18 | B18 | 13.2 % IL-17/IL-17R binding remaining
19 | B19 | 16.2 % IL-17/IL-17R binding remaining
20 | B20 | 13.2 % IL-17/IL-17R binding remaining
21 | B21 | 19.2 % IL-17/IL-17R binding remaining
22 | B22 | 17.6 % IL-17/IL-17R binding remaining
23 | B23 | 14.8 % IL-17/IL-17R binding remaining
24 | B24 | 13.3 % IL-17/IL-17R binding remaining
